For series [1], the target named is T1, VEGF165 (recombinant human vascular endothelial growth factor, 165 aa form) (Homo sapiens, UniProt P15692-4 P15692-4:27-191). Kind of series: filter; PBS, 0.01% HSA, 37 C; Kd1, X1 0.19, Kd2 10 nM. As to conditions: tags: gift from N. Ferrara, Genentech; chain copies: 2 (dimer, stated); label: 32P. Here is the method:
(§1) Internally-labeled RNA ligands used for binding studies were prepared by in vitro transcription using T7 RNA polymerase (Milligan et al. (1987) Nucl. Acids Res. 15:8783) and were purified on denaturing polyacrylamide gels to ensure size homogeneity. All RNA ligands were diluted to about 1 nM in PBS, denatured at 90° C. for 2 minutes, and then cooled on ice prior to incubation with the protein. This denaturation/renaturation cycle performed at high dilution is necessary to ensure that the RNA is essentially free from dimers and other higher order aggregates. Concentrations of the stock solutions of VEGF, from which other dilutions were made, were determined from the absorbance reading at 280 nm using the calculated value for ε280 of 46,600 M^-1cm^-1 for the VEGF dimer (Gill et al. (1989) Anal. Biochem. 182:319). Data sets that define the binding curves were fit to either eq. 2 or eq. 5 by the non-linear least squares method using the software package Kaleidagraph (Synergy Software, Reading, Pa.). […]

The target of series [2] is T1, VEGF165 (recombinant human vascular …). The series can be described thus: filter; PBS, 0.01% HSA, 37 C; Kd1, X1 0.45, Kd2 21 nM. Particulars: tags: gift from N. Ferrara, Genentech; chain copies: 2 (dimer, stated); label: 32P. Here is the method: as §1
Series [3] shares this target. The series can be described thus: inhibition; VEGF receptor binding; single value printed in Ki column. As to conditions: tags: gift from N. Ferrara, Genentech; chain copies: 2 (dimer, stated).
For series [4] the target is unchanged. Kind of series: filter. Particulars: tags: gift from N. Ferrara, Genentech; chain copies: 2 (dimer, stated).
Series [5] shares this target. The series can be described thus: inhibition; VEGF receptor binding. Particulars: tags: gift from N. Ferrara, Genentech; chain copies: 2 (dimer, stated).
The target is the same in series [6]. Kind of series: filter; PBS, 0.01% HSA, 37 C; Kd1, X1 0.82, Kd2 42 nM. As to conditions: tags: gift from N. Ferrara, Genentech; chain copies: 2 (dimer, stated); label: 32P. Here is the method:
as §1

Series [7] has the same target. Kind of series: filter; PBS, 0.01% HSA, 37 C; Kd1, X1 0.70, Kd2 38 nM. Particulars: tags: gift from N. Ferrara, Genentech; chain copies: 2 (dimer, stated); label: 32P. Here is the method:
as §1

For series [8] the target is unchanged. The series can be described thus: filter; Kd1, X1 0.68, Kd2 ~100 nM. As to conditions: tags: gift from N. Ferrara, Genentech; chain copies: 2 (dimer, stated).
For series [9] the target is unchanged. The series can be described thus: filter; PBS, 0.01% HSA, 37 C; Kd1, X1 0.54, Kd2 181 nM. Particulars: tags: gift from N. Ferrara, Genentech; chain copies: 2 (dimer, stated); label: 32P. Here is the method:
as §1

For series [10] the target is unchanged. The series can be described thus: filter; PBS, 0.01% HSA, 37 C; Kd1, X1 0.76, Kd2 180 nM. As to conditions: tags: gift from N. Ferrara, Genentech; chain copies: 2 (dimer, stated); label: 32P; bulged hairpin. Here is the method: as §1
Series [11] has the same target. The series can be described thus: filter; PBS, 0.01% HSA, 37 C; Kd1, X1 0.40, Kd2 11 nM. Particulars: tags: gift from N. Ferrara, Genentech; chain copies: 2 (dimer, stated); label: 32P. Here is the method:
as §1

The target is the same in series [12]. Kind of series: filter; Kd1, X1 0.54, Kd2 9 nM. As to conditions: tags: gift from N. Ferrara, Genentech; chain copies: 2 (dimer, stated).
For series [13] the target is unchanged. The series can be described thus: filter; PBS, 0.01% HSA, 37 C; monophasic. As to conditions: tags: gift from N. Ferrara, Genentech; chain copies: 2 (dimer, stated); label: 32P; bulged hairpin. Here is the method:
as §1

Series [14] shares this target. Kind of series: filter; Kd1, X1 0.82, Kd2 10-100 nM. As to conditions: tags: gift from N. Ferrara, Genentech; chain copies: 2 (dimer, stated).
Series [15] shares this target. Kind of series: filter; PBS, 0.01% HSA, 37 C; Kd1, X1 0.53, Kd2 31 nM. As to conditions: tags: gift from N. Ferrara, Genentech; chain copies: 2 (dimer, stated); label: 32P; asymmetrical internal loop. Here is the method:
as §1

The target is the same in series [16]. Kind of series: filter; monophasic. Particulars: tags: gift from N. Ferrara, Genentech; chain copies: 2 (dimer, stated).
For series [17] the target is unchanged. Kind of series: filter; Kd1, X1 0.79, Kd2 ~100 nM. As to conditions: tags: gift from N. Ferrara, Genentech; chain copies: 2 (dimer, stated).

Data on 16 molecules can be found in US5811533, “High-affinity oligonucleotide ligands to vascular endothelial growth factor (VEGF)” (NeXstar Pharmaceuticals, Inc.).

T1 sequence (P15692 other isoform, or with tags, fused parts or gaps): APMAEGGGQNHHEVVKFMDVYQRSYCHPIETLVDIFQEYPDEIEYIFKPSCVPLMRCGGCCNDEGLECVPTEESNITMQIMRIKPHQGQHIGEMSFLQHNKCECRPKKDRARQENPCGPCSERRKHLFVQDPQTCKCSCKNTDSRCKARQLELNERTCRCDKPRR

B1: ligand 40 (ssRNA)
RNA: GGGAGCUCAGAAUAAACGCUCAAGACCCAUCGUCAACGGUUGAGUCUGUCCCGUUCGACAUGAGGCCCGGAUCCGGC
As to B1, the Kd – broadly, a measure of binding affinity in units of concentration – in [1] was 0.19 nM.

B2: ligand 84 (ssRNA)
RNA: GGGAGCUCAGAAUAAACGCUCAAUAGUUGGAGGCCUGUCCUCGCCGUAGAGCGUUCGACAUGAGGCCCGGAUCCGGC
On to B2, for which the Kd in series [2] stood at 0.82 nM.

Consider ACCCUGAUGGUAGACGCCGGGGUG (ssRNA, 2'-NH2 pyrimidines) [NX-107], for which the inhibition constant Ki (in general, the dissociation constant of the complex between target and ligand, obtained from inhibition or displacement) in series [3] stood at 1 nM.

Regarding CCCGTCTTCCAGACAAGAGTGCAGGG (ssDNA) [33t], in series [4], the Kd is 0.7 nM. In addition, the Ki in series [5] was determined as 3 nM.

B3: ligand 100 (ssRNA)
RNA: GGGAGCUCAGAAUAAACGCUCAACCGGUAGUCGCAUGGCCCAUCGCGCCCGGUUCGACAUGAGGCCCGGAUCCGGC
For B3, the Kd in series [6] stood at 0.2 nM.

B4: ligand 44 (ssRNA)
RNA: GGGAGCUCAGAAUAAACGCUCAAGCUUGAUGGGUGACACACGUCAUGCCGAGCUUCGACAUGAGGCCCGGAUCCGGC
For B4, the Kd in series [7] is 1.7 nM.

B5: 41A (ssRNA)
RNA: GGGAGACAAGAAUAACGCUCAAAACGGAGUGGUAGGCGUUGGGUGCCAGGAAUUCGACAGGAGGCUCACAACAGGC
modifications: 2'-NH2 pyrimidines
For the molecule B5, the equilibrium dissociation constant (Kd) in series [8] was 0.86 nM.

In the case of GGAACGGUUCUGUGUGUGGACUAGCCGCGGCCGUU (ssRNA) [ligand 126t], the equilibrium dissociation constant (Kd) in series [9] turned out to be 1.4 nM.

GGAAGGGAACCUGCGUCUCGGCACCUUCG (ssRNA) [ligand 12t]: the Kd in series [10] was determined as 1.1 nM.

B6: ligand 126 (ssRNA)
RNA: GGGAGCUCAGAAUAAACGCUCAAACGGUUCUGUGUGUGGACUAGCCGCGGCCGUUCGACAUGAGGCCCGGAUCCGGC
For B6, in series [11], the dissociation constant Kd is 0.14 nM.

B7: 44B (ssRNA)
RNA: GGGAGGACGAUGCGGAACCGAGUCGUGUGGGUUGGGGCUCCAGUACAUCCCCGGUCUGGGUGUCAGACGACUCGCCCGA
modifications: 2'-NH2 pyrimidines
As to B7, the equilibrium dissociation constant (Kd) in [12] was found to be 0.14 nM.

For GGUCAACGGUUGAGUCUGUCCCGUUCGAC (ssRNA) [ligand 40t], in series [13], the dissociation constant (Kd) was determined as 20 nM.

B8: 34B (ssRNA)
RNA: GGGAGGACGAUGCGGUGUGGUCAAUGUGGGGUAGGGCUGGUAGGGCAUUCCGUACUGGUGUGGUCAGACGACUCGCCCGA
modifications: 2'-NH2 pyrimidines
B8: in series [14], the Kd stood at 0.068 nM.

Turning to GGCUCAAUAGUUGGAGGCCUGUCCUCGCCGUAGAGC (ssRNA) [ligand 84t], the Kd in [15] was found to be 1.8 nM.

B9: 23A (ssRNA)
RNA: GGGAGACAAGAAUAACGCUCAAGAGGCUGAUGGCAGACGCGGCCGAAGACAUUCGACAGGAGGCUCACAACAGGC
modifications: 2'-NH2 pyrimidines
With B9, the Kd in series [16] was determined as 2.8 nM.

B10: 24A (ssRNA)
RNA: GGGAGACAAGAAUAACGCUCAACCCUGAUGGUAGACGCCGGGGUGCCGGAAUUCGACAGGAGGCUCACAACAGGC
modifications: 2'-NH2 pyrimidines
B10: in series [17], the Kd was found to be 0.71 nM.
